In patent US20070004636A1, “Method of degrading transcriptional factors of saccharometabolism-associated gene, method for inhibiting the degradation, and agent for inhibiting degradation and degradation inhibitor” (priority 2002, published 2007):

Experiments:
human IPF-1 = experiment: in vitro protein degradation test of IPF-1 by calpain (Western blotting); assay type: biochemical; details: 1 hour at 37° C.
Experimental: Using the IPF-1 expression plasmid, synthesis of IPF-1 protein was carried out in vitro using the TNT T7 Quick Coupled Transcription/Translation System. That is, the IPF-1 expression plasmid was mixed with TNT T7 Quick Master Mix, and then incubated for 1.5 hours at 30° C. in the presence of methionine to synthesize IPF-1.
Protein degradation tests were carried out in vitro by adding μ-calpain or m-calpain to IPF-1, and incubating for 1 hour at 37° C. in the presence of 200 mM Tris-HCl (pH 7.8)/1 mM DTT/6 mM CaCl2. The final concentrations of each calpain in the reaction systems were as follows: 50 units/mL of human μ-calpain; 50 μg/mL of rabbit m-calpain as a protein concentration, and 59 units/mL of rat m-calpain. For a control experiment, IPF-1 was incubated without addition of calpain in the same manner in the presence of calcium. Further, to test for protein degradation in the absence of calcium, a sample was prepared by adding 10 mM of EDTA instead of 6 mM of CaCl2, and incubated in the same manner. The samples after incubation were added to an equal volume of 2×SDS sample buffer, heated for 5 minutes, and subjected to 5-20% SDS-PAGE for separation. Thereafter, Western blotting was carried out to detect IPF-1 using anti-Xpress antibody and anti-IPF1 (PDX-1) antibody/N-18 (Santa Cruz Biotechnology, Inc.). The ECL Western blotting detection kit was used for conducting the detection.
In-vitro protein degradation tests were carried out in the same manner as Example 10, but the lysate of sf-9 cells that coexpressed m-calpain with calpain small subunit 1 was used as m-calpain. The final concentration of the lysate of sf-9 cells that expressed these proteins in the reaction system was 2.33 mg/mL as a protein concentration. The final concentration of rat m-calpain in the reaction system was 59 units/mL. Detection of IPF-1 was performed in the same manner as Example 10, but only anti-IPF-1 antibody/N-18 was used.

human HNF-1α = experiment: in vitro protein degradation test of HNF-1α by calpain (Western blotting); assay type: biochemical; details: 1 hour at 37° C.
Experimental: Using the HNF-1α expression plasmid, in vitro synthesis of HNF-1α protein was carried out using the TNT T7 Quick Coupled Transcription/Translation System. That is, the HNF-1α expression plasmid was mixed with TNT T7 Quick Master Mix, and then incubated for 1.5 hours at 30° C. in the presence of methionine to synthesize HNF-1α. Thereafter, immunoprecipitation was conducted by adding anti-Xpress antibody to the synthesized HNF-1α, mixing by inversion for 1 hour at 4° C., and then adding Protein G Sepharose 4 Fast Flow and mixing by inversion for an additional 1 hour at 4° C. Subsequently, Protein G Sepharose was collected by centrifugation and washed 3 times with washing buffer (50 mM Tris-HCl, pH 7.5/150 mM NaCl/0.2% Nonidet P-40), followed by rinsing with 200 mM Tris-HCl (pH 7.8) to obtain the HNF-1α sample as 20% slurry (hereunder, referred to as “HNF-1α slurry”).
Protein degradation tests were carried out in vitro by adding μ-calpain or m-calpain to the HNF-1α slurry, and incubating for 1 hour at 37° C. in the presence of 200 mM Tris-HCl (pH 7.8)/1 mM DTT/6 mM CaCl2. The final concentrations of the respective calpain in the reaction system were as follows: 50 units/mL of human μ-calpain; 50 μg/mL of rabbit m-calpain as a protein concentration; and 59 units/mL of rat m-calpain. For a control experiment, an HNF-1α slurry was incubated without the addition of calpain in a similar manner in the presence of calcium. Further, to test for protein degradation in the absence of calcium, a sample was prepared by adding 10 mM of EDTA instead of 6 mM of CaCl2 and was incubated in the same manner. The samples after incubation were added to an equal volume of 2×SDS sample buffer, heated for 5 minutes, and then subjected to 5-20% SDS-PAGE for separation. Thereafter, Western blotting was carried out to detect HNF-1α using anti-Omni/M21 antibody (Santa Cruz Biotechnology, Inc.), which recognizes a His-Xpress region, and anti-HNF-1α antibody/HNF-1α (C-19) antibody (Santa Cruz Biotechnology, Inc.). An ECL Western blotting detection kit was used for conducting the detection.
In-vitro protein degradation tests were carried out in the same manner as in Example 7, but the lysate of sf-9 cells that coexpressed m-calpain with calpain small subunit 1 was used as m-calpain. The final concentration of the lysate of the sf-9 cells that expressed these proteins in the reaction system was 1.75 mg/mL as a protein concentration. The final concentration of rat m-calpain in the reaction system was 59 units/mL. Detection of HNF-1α was performed in the same manner as Example 7, but only anti-HNF-1α antibody/HNF-1α (C-19) antibody was used.

[1] = in the absence of calcium (10 mM EDTA instead of CaCl2)
[2] = in the presence of calcium (6 mM CaCl2), Western blotting

B1: human m-calpain: lysate of sf-9 insect cells coexpressing human m-calpain with calpain small subunit 1; FLAG-tagged, expressed in HEK293T cells, in Example 3 (protein, UniProt P17655 20-700; P04632 1-268, looked up)
Calpain-2 catalytic subunit: SHDRAIKYLNQDYEALRNECLEAGTLFQDPSFPAIPSALGFKELGPYSSKTRGIEWKRPTEICADPQFIIGGATRTDICQGALGDCWLLAAIASLTLNEEILARVVPLNQSFQENYAGIFHFQFWQYGEWVEVVVDDRLPTKDGELLFVHSAEGSEFWSALLEKAYAKINGCYEALSGGATTEGFEDFTGGIAEWYELKKPPPNLFKIIQKALQKGSLLGCSIDITSAADSEAITFQKLVKGHAYSVTGAEEVESNGSLQKLIRIRNPWGEVEWTGRWNDNCPSWNTIDPEERERLTRRHEDGEFWMSFSDFLRHYSRLEICNLTPDTLTSDTYKKWKLTKMDGNWRRGSTAGGCRNYPNTFWMNPQYLIKLEEEDEDEEDGESGCTFLVGLIQKHRRRQRKMGEDMHTIGFGIYEVPEELSGQTNIHLSKNFFLTNRARERSDTFINLREVLNRFKLPPGEYILVPSTFEPNKDGDFCIRVFSEKKADYQAVDDEIEANLEEFDISEDDIDDGFRRLFAQLAGEDAEISAFELQTILRRVLAKRQDIKSDGFSIETCKIMVDMLDSDGSGKLGLKEFYILWTKIQKYQKIYREIDVDRSGTMNSYEMRKALEEAGFKMPCQLHQVIVARFADDQLIIDFDNFVRCLVRLETLFKIFKQLDPENTGTIELDLISWLCFSVL
Calpain small subunit 1: MFLVNSFLKGGGGGGGGGGGLGGGLGNVLGGLISGAGGGGGGGGGGGGGGGGGGGGTAMRILGGVISAISEAAAQYNPEPPPPRTHYSNIEANESEEVRQFRRLFAQLAGDDMEVSATELMNILNKVVTRHPDLKTDGFGIDTCRSMVAVMDSDTTGKLGFEEFKYLWNNIKRWQAIYKQFDTDRSGTICSSELPGAFEAAGFHLNEHLYNMIIRRYSDESGNMDFDNFISCLVRLDAMFRAFKSLDKDGTGQIQVNIQEWLQLTMYS
modifications: FLAG tag
- degradation of IPF-1 (human IPF-1; [1]): not observed
- degradation of IPF-1 (human IPF-1; [2]): observed
- degradation of HNF-1α (human HNF-1α; [1]): not observed
- degradation of HNF-1α (human HNF-1α; [2]): observed
